From patent US7422884B2, “Feedback-resistant mevalonate kinases” (DSM IP Assetts B.V., priority 2003, dated 2008)

B1: WT: wild-type His6-tagged mevalonate kinase of Paracoccus zeaxanthinifaciens, SEQ ID NO:15 (protein)
chain: MRGSHHHHHHSTGRPEAGAHAPGKLILSGEHSVLYGAPALAMAIARYTEVWFTPLGIGEGIRTTFANLSGGATYSLKLLSGFKSRLDRRFEQFLNGDLKVHKVLTHPDDLAVYALASLLHDKPPGTAAMPGIGAMHHLPRPGELGSRTELPIGAGMGSSAAIVAATTVLFETLLDRPKTPEQRFDRVRFCERLKHGKAGPIDAASVVRGGLVRVGGNGPGSISSFDLPEDHDLVAGRGWYWVLHGRPVSGTGECVSAVAAAHGRDAALWDAFAVCTRALEAALLSGGSPDAAITENQRLLERIGVVPAATQALVAQIEEAGGAAKICGAGSVRGDHGGAVLVRIDDAQAMASVMARHPDLDWAPLRMSRTGAAPGPAPRAQPLPGQG
modifications: His6 tag; His6-Paracoccus zeaxanthinifaciens
B2: G47D (protein, listed as Paracoccus zeaxanthinifaciens)
chain: MSTGRPEAGAHAPGKLILSGEHSVLYGAPALAMAIARYTEVWFTPLDIGEGIRTTFANLSGGATYSLKLLSGFKSRLDRRFEQFLNGDLKVHKVLTHPDDLAVYALASLLHDKPPGTAAMPGIGAMHHLPRPGELGSRTELPIGAGMGSSAAIVAATTVLFETLLDRPKTPEQRFDRVRFCERLKHGKAGPIDAASVVRGGLVRVGGNGPGSISSFDLPEDHDLVAGRGWYWVLHGRPVSGTGECVSAVAAAHGRDAALWDAFAVCTRALEAALLSGGSPDAAITENQRLLERIGVVPAATQALVAQIEEAGGAAKICGAGSVRGDHGGAVLVRIDDAQAMASVMARHPDLDWAPLRMSRTGAAPGPAPRAQPLPGQG
B3: K93E (protein, listed as Paracoccus zeaxanthinifaciens)
chain: MSTGRPEAGAHAPGKLILSGEHSVLYGAPALAMAIARYTEVWFTPLGIGEGIRTTFANLSGGATYSLKLLSGFKSRLDRRFEQFLNGDLKVHEVLTHPDDLAVYALASLLHDKPPGTAAMPGIGAMHHLPRPGELGSRTELPIGAGMGSSAAIVAATTVLFETLLDRPKTPEQRFDRVRFCERLKHGKAGPIDAASVVRGGLVRVGGNGPGSISSFDLPEDHDLVAGRGWYWVLHGRPVSGTGECVSAVAAAHGRDAALWDAFAVCTRALEAALLSGGSPDAAITENQRLLERIGVVPAATQALVAQIEEAGGAAKICGAGSVRGDHGGAVLVRIDDAQAMASVMARHPDLDWAPLRMSRTGAAPGPAPRAQPLPGQG

Experiments:
[1] = tested on: His6-tagged Paracoccus zeaxanthinifaciens mevalonate kinase; experiment: Feedback inhibition of mevalonate kinase by downstream products of the pathway; type: biochemical; conditions: 138 μM of the inhibitor; wild-type His6-tagged enzyme
Experimental: (§1) Enzymatic assays for measuring mevalonate kinase activity have been described, e.g., by Popák (Meth. Enzymol. 15, 393-, 1969), Gibson et al. (Enzyme 41, 47-55, 1989), Hinson et al. (J. Lipid Res. 38, 2216-2223, 1997), Schulte et al. (Anal. Biochem. 269, 245-254, 1999), or Cho et al. (J. Biol. Chem. 276, 12573-12578, 2001). For preparing mevalonate as substrate, 130 mg of DL-mevalonate lactone (FLUKA Chemie AG, Buchs, Switzerland) were dissolved in 5.5 ml of 0.2 M KOH and incubated for 15 min at 50° C. The solution was then adjusted to pH 7.0 by addition of 0.1 M HCl at room temperature (RT). Except if stated otherwise (see Example 3), the assay mixture consists of 100 mM K2HPO4/KH2PO4 (pH 7.0), 1 mM ATP, 2 mM MgCl2, 1 mM mevalonate, 0.5 mM phosphoenolpyruvate (PEP), 0.32 mM NADH, 20 U/ml pyruvate kinase and 27 U/ml lactate dehydrogenase (Sigma-Aldrich, St. Louis, Mo., USA). FPP, GGPP, IPP, DMAPP and GPP tested as inhibitors in the assay mixtures (at concentrations of 0-100 μM) were all purchased from Sigma. Upon addition of purified (His6-tagged) mevalonate kinase, enzymatic reaction reflected by consumption of NADH was followed by photometric measurement at 340 nm. One unit (1 U) of mevalonate kinase activity catalyzes the phosphorylation of 1 μmol of mevalonate per min.
(§2) Mevalonate was prepared as described in Example 2. The assay mixture consists of 100 mM K2HPO4/KH2PO4 (pH 7.0), 1 mM ATP, 1 mM mevalonate, 2 mM MgCl2, 0.5 mM phosphoenolpyruvate (PEP), 0.32 mM NADH, 20 U/ml pyruvate kinase and 27 U/ml lactate dehydrogenase (Sigma-Aldrich, St. Louis, Mo., USA). FPP, GGPP, IPP, DMAPP and GPP tested as inhibitors in the assay mixtures were all purchased from Sigma. 92 μM FPP or 17.6 μM GGPP were used for inhibition assays performed with the mevalonate kinase mutants. For the comparison of inhibition by FPP, GGPP, IPP, DMAPP and GPP, 138 μM of these intermediates were added (Example 9). Upon addition of purified (HiS6-tagged) mevalonate kinase, enzymatic reaction reflected by consumption of NADH was followed by photometric measurement at 340 nm.
Different mevalonate kinases were previously reported to be sensitive to feedback inhibition by the following downstream products of the mevalonate pathway: IPP, DMAPP, GPP, FPP, GGPP, phytyl-PP, farnesol, dolichol phosphate.

[2] = tested on: Paracoccus zeaxanthinifaciens mevalonate kinase; experiment: Mevalonate kinase activity assay (NADH-coupled photometric assay, specific activity of mutants); type: biochemical; conditions: purified His6-tagged enzyme, 1 mM ATP, 1 mM mevalonate, pH 7.0
Experimental: as §1, §2

[3] = pH 8
[4] = tested on: Paracoccus zeaxanthinifaciens mevalonate kinase; experiment: Feedback resistance of mevalonate kinase mutants to FPP or GGPP; type: biochemical; conditions: feedback inhibitor FPP, 92 μM; relative to wild-type
Experimental: “Feedback resistance” shall mean any increase in resistance to “feedback inhibition” (as defined above). Feedback resistance can be analyzed in different ways known to those skilled in the art. An appropriate approach shall be described here shortly: mevalonate kinase activity is measured in an activity assay similar to the one described in Example 2 at non-saturating concentrations of ATP (or of another phosphate donor) and mevalonate (or mevalonate analogue), i.e., at ATP (or phosphate donor) and mevalonate (or mevalonate analogue) concentrations around which the reaction rate is sensitive to changes of these substrate concentrations, e.g. at concentrations around the respective Km values of the enzyme under investigation for these substrates. The activities of both wild-type mevalonate kinase and of a variant/mutant of this enzyme are measured under otherwise identical conditions both in the absence and presence of a relevant concentration of a feedback inhibitor, i.e., at a concentration of feedback inhibitor affording significant inhibition of the wild-type mevalonate kinase. […] Feedback resistance (%) is calculated as follows: if a and b are the measured mevalonate kinase activities of the wild-type enzyme in the absence and presence, respectively, of the feedback inhibitor (e.g., FPP), and if c and d are the measured mevalonate kinase activities of the mutant enzyme in the absence and presence, respectively, of the same feedback inhibitor, then % feedback resistance is: % resistance=100·((d/c)−(b/a))/(1−(b/a)) […]
Feedback resistance (%) is calculated as follows: if a and b are the measured mevalonate kinase activities of the wild-type enzyme in the absence and presence, respectively, of the feedback inhibitor (in this case, FPP), and if c and d are the measured mevalonate kinase activities of the mutant enzyme in the absence and presence, respectively, of the same feedback inhibitor, then % feedback resistance is: % resistance=100·((d/c)−(b/a))/(1−(b/a))

Molecule	Inhibition of mevalonate kinase activity [1] [%]	Specific activity (% of wild-type) [2]	Solubility / tendency to aggregate [3]	Feedback resistance (%) [4] [%]
CC(C)=CCOP(=O)(O)OP(=O)(O)O [DMAPP, 3,3-dimethylallyl diphosphate]	14.7			
CC(C)=CCC/C(C)=C/CC/C(C)=C/CC/C(C)=C/COP(=O)(O)OP(=O)(O)O [GGPP, geranylgeranyl diphosphate]	98			
CC(C)=CCC/C(C)=C/COP(=O)(O)OP(=O)(O)O [GPP, geranyl diphosphate]	18.6			
C=C(C)CCOP(=O)(O)OP(=O)(O)O [IPP, isopentenyl diphosphate]	16.3			
B1		100 % of wild-type	pronounced tendency to aggregate/precipitate	0
B2		121 % of wild-type		32
B3		109 % of wild-type		33
